{
  "source": "patent US20210230265A1",
  "about": "(Sanofi, published 2021)",
  "binders": {"B1": {"name": "SAR440340 (antibody, human IgG4 S228P, kappa, V domains shown)", "VH": "VQLVESGGNLEQPGGSLRLSCTASGFTFSRSAMNWVRRAPGKGLEWVSGISGSGGRTYYADSVKGRFTISRDNSKNTLYLQMNSLSAEDTAAYYCAKDSYTTSWYGGMDVWGHGTTVTVSS", "VL": "IQMTQSPSSVSASVGDRVTITCRASQGIFSWLAWYQQKPGKAPKLLIYAASSLQSGVPSRFSGSGSGTDFTLTISSLQPEDFAIYYCQQANSVPITFGQGTRLEIKR", "notes": "Human anti-IL-33 antibody; also called REGN3500; itepekimab"}},
  "target": "T1, interleukin-33 (IL-33) (human, UniProt O95760 95-270, limits assumed)",
  "T1 construct": "This is endogenous circulating IL-33 in treated patients, not a recombinant construct; also called total IL-33",
  "T1 sequence (looked up)": "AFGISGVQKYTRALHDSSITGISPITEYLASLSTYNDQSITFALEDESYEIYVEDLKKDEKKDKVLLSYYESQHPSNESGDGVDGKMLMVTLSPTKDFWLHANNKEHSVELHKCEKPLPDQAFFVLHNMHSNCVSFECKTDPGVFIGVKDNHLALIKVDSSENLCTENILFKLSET",
  "assay": "Target mediated drug disposition (TMDD) model of total IL-33 vs. time in serum, driven by PopPK-predicted PK, all studies; an in vivo model estimate, not a direct binding assay; in vivo TMDD model estimate from clinical total IL-33 data, not a direct binding assay",
  "procedure": "Total TL-33 vs. time was modelled using a target mediated drug disposition (TMDD) approach. All studies were included in the analysis. PopPK predicted PK for each individual was used to drive the total IL-33 dynamics. […] (This was based on the baseline IL-33 assumption of ½ lower limit of quantification (LLOQ).) Based on the computed threshold, 300 mg Q2W, 300 mg Q4W, and 300 mg Q8W may be able to meet the threshold target for achieving 90% target engagement.",
  "data": [
    {"binder": "B1", "values": [
      {"measurement": "Kd", "value": 7.01, "unit": "nM"}
    ]}
  ]
}
